# B1: TAB-28z-mKATE chimeric antigen receptor (2nd generation), on T cells (receptor)
# chain: EVQLQQSGGERATPGASVKMSCKTSGYTFTNYWMHWVKQRPGQGLEWIGYINPSSGYTQYNQKFKDKATLTADKSSSTAYIQLSSLTSEDSAVYYCSTYYGDYLFPYWGQGTLVTVSAGGGGSGGGGSGGGGSDVLMTQTPLSLPVSLGDQASISCRSSQDIVYGNGNTYLEWYLQKPGQSPKLLIYKVSNRFSGVPDRFSGSGSGTDFTLKISRVEAEDLGVYYCFQGSHVPYTFGGGTKLEIKRAAAIEVEQKLISEEDLLDNEKSNGTIIHVKGKHLCPSPLFPGPSKPFWVLVVVGGVLACYSLLVTVAFIIFWVRSKRSRLLHSDYMNMTPRRPGPTRKHYQPYAPPRDFAAYRSRVKFSRSADAPAYQQGQNQLYNELNLGRREEYDVLDKRRGRDPEMGGKPRRKNPQEGLYNELQKDKMAEAYSEIGMKGERRRGKGHDGLYQGLSTATKDTYDALHMQALPPRARGAAAGAGGAGRMVSELIKENMHMKLYMEGTVNNHHFKCTSEGEGKPYEGTQTMRIKAVEGGPLPFAFDILATSFMYGSKTFINHTQGIPDFFKQSFPEGFTWERVTTYEDGGVLTATQDTSLQDGCLIYNVKIRGVNFPSNGPVMQKKTLGWEASTETLYPADGGLEGRADMALKLVGGGHLICNLKTTYRSKKPAKNLKMPGVYYVDRRLERIKEADKETYVEQHEVAVARYCDLPSKLGHR
# notes: Expressed on the surface of T cells or Jurkat cells; also called CAR-mKATE; CAR-mKate fusion protein
# Biological target: T1, human MUC1, tumor-associated form (tMUC), on tumor cells and tumor tissue (human, UniProt P15941 24-1255, tumor-associated (aberrant) glycosylation, not specified further)
# T1 construct: also called tMUC1; tumor-associated glycosylated MUC1
# Assay: fluorescence microscopy of CAR T cells co-incubated with HPAFII cells
# T1 sequence (P15941 other isoform, or with tags, fused parts or gaps limits assumed): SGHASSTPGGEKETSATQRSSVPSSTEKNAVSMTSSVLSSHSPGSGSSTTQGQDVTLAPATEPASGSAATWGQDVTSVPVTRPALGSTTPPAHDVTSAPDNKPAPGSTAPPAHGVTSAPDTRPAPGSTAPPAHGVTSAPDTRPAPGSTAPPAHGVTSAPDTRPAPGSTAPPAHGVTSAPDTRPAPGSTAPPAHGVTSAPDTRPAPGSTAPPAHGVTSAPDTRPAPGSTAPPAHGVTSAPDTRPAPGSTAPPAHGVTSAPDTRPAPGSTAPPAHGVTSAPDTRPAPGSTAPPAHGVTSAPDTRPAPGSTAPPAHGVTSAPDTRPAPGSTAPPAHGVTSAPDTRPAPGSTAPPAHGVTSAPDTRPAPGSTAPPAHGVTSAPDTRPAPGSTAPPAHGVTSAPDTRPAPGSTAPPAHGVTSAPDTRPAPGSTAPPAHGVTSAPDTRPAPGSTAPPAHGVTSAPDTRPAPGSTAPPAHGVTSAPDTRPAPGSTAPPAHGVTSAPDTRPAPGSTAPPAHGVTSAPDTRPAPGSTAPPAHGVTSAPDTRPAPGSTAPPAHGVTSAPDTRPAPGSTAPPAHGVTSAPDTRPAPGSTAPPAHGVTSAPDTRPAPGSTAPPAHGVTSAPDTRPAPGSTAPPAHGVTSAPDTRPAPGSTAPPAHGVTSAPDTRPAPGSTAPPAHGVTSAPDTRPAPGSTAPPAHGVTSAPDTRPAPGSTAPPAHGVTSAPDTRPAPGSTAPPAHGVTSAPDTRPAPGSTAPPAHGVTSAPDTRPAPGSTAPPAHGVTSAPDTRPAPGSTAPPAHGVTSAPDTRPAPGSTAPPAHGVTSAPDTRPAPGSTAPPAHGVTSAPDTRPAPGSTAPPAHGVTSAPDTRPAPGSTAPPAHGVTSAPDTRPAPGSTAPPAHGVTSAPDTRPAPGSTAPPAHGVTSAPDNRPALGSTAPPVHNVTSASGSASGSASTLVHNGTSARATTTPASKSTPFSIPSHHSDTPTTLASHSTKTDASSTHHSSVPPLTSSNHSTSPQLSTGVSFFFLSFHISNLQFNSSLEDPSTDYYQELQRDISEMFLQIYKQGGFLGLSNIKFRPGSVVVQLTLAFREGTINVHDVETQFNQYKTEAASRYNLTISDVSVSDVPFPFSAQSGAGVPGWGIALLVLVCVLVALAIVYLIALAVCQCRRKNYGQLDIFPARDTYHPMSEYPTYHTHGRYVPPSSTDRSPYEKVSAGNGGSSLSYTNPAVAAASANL
binder,measurement,value
B1,binding result,binds

# Source: patent publication US12605469B2, “Tumor specific antibody conjugates and uses therefor” (The University of North Carolina at Charlotte, priority 2019, dated 2026)
